From patent US20240009242A1 (STARKAGE THERAPEUTICS, published 2024) come the findings set out here.

Test [1] has as its target human DPP4 on the surface of fibroblasts (human) (UniProt P27487). Description: flow cytometry on IPF human lung fibroblasts; 0.5 µg per test; anti-6xHis tag PE secondary. Background: A flow cytometer gives signals particle by particle.
Test [2] has the same target. Description: flow cytometry on Wi-38 fibroblasts (PDL<20); 0.5 µg per test; anti-6xHis tag PE secondary.
The target is the same in test [3]. Description: flow cytometry on COPD human lung fibroblasts; 0.5 µg per test; anti-6xHis tag PE secondary.
The target is the same in test [4]. The experiment in a line: flow cytometry on untreated GM21808 fibroblasts; 0.5 µg per test; anti-6xHis tag PE secondary.
Test [5] has the same target. Description: flow cytometry on NHLF (normal human lung fibroblasts); 0.5 µg per test; anti-6xHis tag PE secondary.
Test [6] has the same target. Description: flow cytometry on GM21808 fibroblasts treated with etoposide; 0.5 µg per test; anti-6xHis tag PE secondary.
The target in test [7] is T1, human DEP1 on the surface of fibroblasts (human) (UniProt Q12913).
T1 sequence: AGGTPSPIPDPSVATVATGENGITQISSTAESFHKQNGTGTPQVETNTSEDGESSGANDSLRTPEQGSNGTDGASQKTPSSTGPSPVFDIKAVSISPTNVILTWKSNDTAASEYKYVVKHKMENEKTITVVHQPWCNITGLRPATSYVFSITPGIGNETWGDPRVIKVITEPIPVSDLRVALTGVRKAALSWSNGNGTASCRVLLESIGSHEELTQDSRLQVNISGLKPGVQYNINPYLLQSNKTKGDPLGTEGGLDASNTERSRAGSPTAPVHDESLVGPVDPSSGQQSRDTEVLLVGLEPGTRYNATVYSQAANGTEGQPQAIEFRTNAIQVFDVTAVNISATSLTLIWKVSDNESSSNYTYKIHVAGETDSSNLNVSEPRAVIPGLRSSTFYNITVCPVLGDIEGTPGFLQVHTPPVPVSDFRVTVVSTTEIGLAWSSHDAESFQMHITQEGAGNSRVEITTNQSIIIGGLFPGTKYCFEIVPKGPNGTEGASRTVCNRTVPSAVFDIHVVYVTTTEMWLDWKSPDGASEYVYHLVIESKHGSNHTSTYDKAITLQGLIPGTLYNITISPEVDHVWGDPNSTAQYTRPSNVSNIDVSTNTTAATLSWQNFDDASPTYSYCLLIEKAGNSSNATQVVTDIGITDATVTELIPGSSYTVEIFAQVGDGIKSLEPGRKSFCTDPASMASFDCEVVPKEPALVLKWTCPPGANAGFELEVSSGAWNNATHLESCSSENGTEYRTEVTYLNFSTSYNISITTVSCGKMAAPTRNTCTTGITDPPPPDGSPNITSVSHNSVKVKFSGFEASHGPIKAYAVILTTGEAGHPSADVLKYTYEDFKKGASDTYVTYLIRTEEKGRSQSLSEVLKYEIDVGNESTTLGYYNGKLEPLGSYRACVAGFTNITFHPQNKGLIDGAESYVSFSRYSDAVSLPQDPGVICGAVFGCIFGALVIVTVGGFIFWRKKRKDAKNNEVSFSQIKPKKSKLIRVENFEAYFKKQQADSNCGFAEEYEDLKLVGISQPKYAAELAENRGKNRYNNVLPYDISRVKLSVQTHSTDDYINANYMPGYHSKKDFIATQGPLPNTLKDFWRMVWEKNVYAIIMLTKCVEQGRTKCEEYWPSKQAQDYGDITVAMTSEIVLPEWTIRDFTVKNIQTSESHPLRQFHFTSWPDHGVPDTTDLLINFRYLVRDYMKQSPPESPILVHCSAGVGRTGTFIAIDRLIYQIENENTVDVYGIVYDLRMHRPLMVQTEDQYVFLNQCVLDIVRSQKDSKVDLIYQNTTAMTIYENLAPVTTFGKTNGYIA
Description: flow cytometry on IPF human lung fibroblasts; 0.5 µg per test; anti-6xHis tag PE secondary.

Test [8] concerns the target T1, human DEP1 on the surface of fibroblasts (human). The experiment in a line: flow cytometry on Wi-38 fibroblasts (PDL<20); 0.5 µg per test; anti-6xHis tag PE secondary.
Test [9] shares this target. Description: flow cytometry on COPD human lung fibroblasts; 0.5 µg per test; anti-6xHis tag PE secondary.
Test [10] shares this target. Description: flow cytometry on untreated GM21808 fibroblasts; 0.5 µg per test; anti-6xHis tag PE secondary.
For test [11] the target is unchanged. The experiment in a line: flow cytometry on NHLF (normal human lung fibroblasts); 0.5 µg per test; anti-6xHis tag PE secondary.
The target is the same in test [12]. The experiment in a line: flow cytometry on GM21808 fibroblasts treated with etoposide; 0.5 µg per test; anti-6xHis tag PE secondary.
The target in another test is T2, hDEP1 Peptide #4 (human, also: conjugated to BSA).
T2 construct: also called hDEP1 Peptide #4/BSA
T2 peptide: ADVLKYTYEDFKKGASDT
Description: ELISA, soluble scFv produced in microtiter plate. The protocol:
96 isolated clones from the second, third and fourth rounds of panning were hand-picked and used to produce the respective soluble scFv in microtiter plate. Each clone was then tested in ELISA against hDEP1 Peptide #4/BSA.
(In general: An ELISA detects its analyte on a solid surface through an enzyme-linked reagent.)

Ends that are not written are not given here.

human DPP4 on the surface of fibroblasts (human), sequence (P27487 whole entry): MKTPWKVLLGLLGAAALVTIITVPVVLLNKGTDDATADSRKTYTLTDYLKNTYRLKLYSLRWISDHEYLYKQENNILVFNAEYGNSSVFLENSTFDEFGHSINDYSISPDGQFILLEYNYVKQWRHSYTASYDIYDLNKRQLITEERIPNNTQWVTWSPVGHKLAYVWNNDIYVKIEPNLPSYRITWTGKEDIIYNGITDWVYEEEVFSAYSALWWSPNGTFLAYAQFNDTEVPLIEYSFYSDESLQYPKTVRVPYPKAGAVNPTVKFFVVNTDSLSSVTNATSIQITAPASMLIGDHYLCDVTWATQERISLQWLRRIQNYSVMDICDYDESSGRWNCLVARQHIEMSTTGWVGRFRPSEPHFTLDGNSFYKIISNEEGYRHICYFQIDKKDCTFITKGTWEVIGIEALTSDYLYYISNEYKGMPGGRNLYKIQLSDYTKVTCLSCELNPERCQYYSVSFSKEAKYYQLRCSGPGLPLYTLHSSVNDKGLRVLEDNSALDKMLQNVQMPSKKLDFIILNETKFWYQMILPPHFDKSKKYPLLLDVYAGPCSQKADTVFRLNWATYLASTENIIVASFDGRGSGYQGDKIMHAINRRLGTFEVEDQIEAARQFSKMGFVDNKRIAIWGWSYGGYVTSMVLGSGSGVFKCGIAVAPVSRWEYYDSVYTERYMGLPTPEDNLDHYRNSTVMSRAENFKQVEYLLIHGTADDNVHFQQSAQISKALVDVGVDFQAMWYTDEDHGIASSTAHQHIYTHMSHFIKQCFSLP

B1: 5826-13-R4A-H5 (scFv, part only; not given: linker and His-Flag tag, V domains shown, not shown: another chain or arm of the molecule; large carriers; small tags and cut ends)
VH: EVQLQQSGAGLTKPGGSVKISCKVSGYTFTTYDIGWLKQRPGQALEWIGSINPGGGGTGYNEKFKGKATLTVDKSSSTAFMQLSSLTPEDTAVYYCARPLRRVLDYWGQGVLVTVSS
VL: DIQLTQSPSSLPASLGERVTISCRASQGISNKLNWYQQKPDGTIKPLIYYTSNLQSGVPSRFSGSGSGTDYSLTISSLEPEDFAMYYCQQDASFPPTFGGGTKLELK
For B1, the MFI in test [1] turned out to be 16700; in test [2] it was 574; in [3], 10100; in [4], 1940; in [5], 3650; in test [6] it was 10900. The percentage of positive cells was determined as 79.5% in test [1]; 0.01% in [2]; 66.5% in test [3]; 8.13% in test [4]; 11% in test [5]; 61.9% in [6].

B2: 5738-10-R3A-D5 (scFv, part only; not given: linker and His-Flag tag, V domains shown, not shown: another chain or arm of the molecule; small tags and cut ends)
VH: EVQLQQSGAELAKPGSSVKISCKASGYTFTSYYISWIKQTTGQGLEYIGYINTGSGGTNYNEKFKGKATLTVDKSSSTAFMQLSSLTPDDSAVYYCARDKWVDWGQGVMVTVSS
VL: DILMTQSPSSMSVSLGDTVTITCRASQDVGIYVNWFQQKPGKPPRRMIYRATNLADGVPSRFSGSRSGSNYSLTIRSLESEDVADYHCLQYDEWPYTFGAGTKLELK
Turning to B2, the MFI in test [7] came to 3500; in test [8] it was 1040; in test [9], 1440; in test [10], 632; in test [11], 1250; in [12], 1380. The percentage of positive cells in test [7] amounted to 22.3%; in [8], 4.81%; in test [9] it was 0.06%; in [10], 0.07%; in test [11], 0.08%; in [12] it was 6.57%.

B3: 5738-10-R4A-E7 (scFv, V domains shown)
VH: QVQLKQSGVELAKPGSSVKISCKASGYTFTSDSISWIKQTTGQGLEYIGYIHPGSGVTNYNEKFKGKATLTVDKSSSTAFMQLSSLTPDDSAIYYCARYFDYWGQGVMVTVSS
VL: DILMTQSPSSMSVSLGDTVTITCRASQDVGIYVNWFQQIPGKSPRRLIYRATNLADGVPSRFSGSRSGSDYSLTIASLESEDVADYHCLQYDEFPPTFGSGTKLEIK
notes: anti-hDEP1 scFv, rat 10 library, format VH/VL-6xHis-Flag
B3: the binding result with hDEP1 Peptide #4 is “binds”.

B4: 5738-10-R4A-G11 (scFv, V domains shown)
VH: QVQLQQPRAELAKPGSSVKISCKASGYTFTNYSISWIKQTTGQGLEYIGYIYPGSGDTNYNEKFKGKATLTVDKSSSTAFMQLSSLTPDDSAVYYCARYFDHWGQGTLVTVSS
VL: DILMTQSPSSMSVSLGDTVTITCRASQDVGIYVNWFQQKPGKSPRRMIYRATTLADGVPSRFSGSRSGSDYSLTISSLESEDVADYHCLQYDEYPPTFGSGTKLEIK
notes: as for B3
With B4, in the test with hDEP1 Peptide #4, the binding result is given as “binds”.

B5: 5738-10-R4A-G4 (scFv, V domains shown)
VH: EVQLQQSGVELAKPGSSVKISCKASGYTFTSDSISWIKQTTGQGLEYIGYIHPGSGVTNYNEKFRGKATLTVDKSSSTAFMQLSSLTPDDSAIYYCARYFDYWGQGVMVTVSS
VL: DIVMTQSPSSMSVSLGDTVTITCRASQDVGIYVNWFQQKPGKSPRRMIYRATNLADGVPSRFSGSRSGSDYSLTIASLESEDVADYHCLQYDEFPPTFGSGTKLEIK
notes: as for B3
With B5, in the test with hDEP1 Peptide #4, the binding result is reported as “binds”.

B6: 5738-10-R4A-E9 (scFv, V domains shown)
VH: QVQLKQSGAELAKPGSSVKISCKASGYTFTSYYISWIKQTTGQGLEYIGYIHPGSGVTNYNEKFKGKATLTVDKSSSTAFMQLSSLTPDDSAIYYCARYFDYWGQGVMVTVSS
VL: DILMTQSPSSMSVSQGDTVTITCRASQDVGIYVNWFQQKPGKSPRRMIHRATNLADGVPSRFSGSRSGSDYSLTITSLESEDVADYHCLQYDEYPPTFGSGTNLEIK
notes: as for B3
Turning to B6, the binding result in the test with hDEP1 Peptide #4 is listed as “binds”.

B7: 5738-10-R4A-F12 (scFv, V domains shown)
VH: EVQLQQSGVELAKPGSSVKISCKASGYTFTSDSISWIKQTTGQGLEYIGYIHPGSGVTNYNEKFKGKATLTVDKSSSTAFMQLSSLTPDDSAIYYCARYFDYWGQGVMVTVSS
VL: DILMTQSPSSMSVSLGDTVTITCRASQDVGIYVNWFQQKPGKSPRRMIHRATNLADGVPSRFSGSRSGSDYSLTISSLESEDVADYHCLQYDEYPPTFGSGTKLEIK
notes: as for B3
For B7, the binding result in the test with hDEP1 Peptide #4 is “binds”.

B8: 5826-13-R3A-D5 (scFv, part only; not given: linker and His-Flag tag, V domains shown, not shown: another chain or arm of the molecule; small tags and cut ends)
VH: EVKLVESGPGLVKPSQSLSLTCSVTGYFITGNYLAWIRKFPGNKMEWIGHIKSSGTTTYNPSLKSRVSITRDTSKNQFFLQLNSVTSEDTATYYCARHGHYVMDVWGQGASVTVSS
VL: DIVLTQSPVLAVSLGQRATISCRASQSVSTSTYNFMHWYQQKPGQQPRLLIYDASHLASSVPARFSGSGSGTDFTLTINPVQADDIATYYCQQSRELPLTFGSGTKLEIK
Consider B8, for which the MFI in [1] came out at 11500; in test [2], 581; in test [3], 4060; in [4], 1210; in test [5], 1740; in test [6], 2730. The percentage of positive cells in test [1] was 62.7%; in [2] it was 0%; in test [3], 10.7%; in test [4], 5.02%; in test [5] it was 2.02%; in [6], 16.1%.

B9: 5738-13-R2A-H4 (scFv, part only; not given: linker and His-Flag tag, V domains shown, not shown: another chain or arm of the molecule; small tags and cut ends)
VH: EVKLVESGGGLVQPGRSLKLSCAASGFTFSNYYMAWVRQAPTKGLEWVAYITNGFGSTYYRDSVKGRFTISRDNAKSTLYLQMDSLRSEDTATYYCSTVPLGAFVSWGQGTLVTVSS
VL: DIQMTQTPHSLSASLGETVSIECLASEGISNYLAWYQQKPGKSPQLLISYANPLHDGVPSRFSGSGSGTQFSLKIRNMQPEDEGVYYCQQGYKFPYTFGAGTKLELT
B9: the MFI in test [7] came to 5020; in [8] it was 891; in test [9], 1480; in [10], 980; in [11], 1310; in test [12], 2210. In addition, the percentage of positive cells was determined as 40% in test [7]; 4.88% in test [8]; 0.39% in [9]; 2.5% in test [10]; 0.58% in [11]; 12.5% in test [12].
